{"source": "paper PMC2865556", "about": "(Integrative biology : quantitative biosciences from nano to …, 2009)", "target": "full-length t-SNARE heterodimer (syntaxin 1A and SNAP-25) (UniProt P32851 1-288; P60879 1-206)", "sequence (P32851 whole entry, chain 1 of 2)": "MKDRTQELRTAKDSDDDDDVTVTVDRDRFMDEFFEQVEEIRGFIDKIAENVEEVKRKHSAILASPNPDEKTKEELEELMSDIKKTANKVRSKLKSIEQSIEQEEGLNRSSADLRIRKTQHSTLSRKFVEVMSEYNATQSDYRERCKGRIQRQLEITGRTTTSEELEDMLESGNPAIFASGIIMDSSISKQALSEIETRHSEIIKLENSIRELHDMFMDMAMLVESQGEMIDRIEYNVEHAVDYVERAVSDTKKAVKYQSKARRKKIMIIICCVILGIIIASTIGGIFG", "sequence (P60879 whole entry, chain 2 of 2)": "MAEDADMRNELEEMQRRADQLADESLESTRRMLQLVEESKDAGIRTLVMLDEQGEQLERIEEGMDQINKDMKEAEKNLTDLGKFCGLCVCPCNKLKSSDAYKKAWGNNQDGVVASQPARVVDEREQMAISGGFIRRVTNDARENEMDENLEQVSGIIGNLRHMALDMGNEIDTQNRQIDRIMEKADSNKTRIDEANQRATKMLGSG", "experiment": "AFM single-molecule force spectroscopy"}
{"binder": "FETSAAKLKRKYWWKNLKMMIILGVICAIILIIIIVYFST (domain or fragment)", "note": "[VAMP 2 in v-SNARE bilayers after cleavage by BoNT/B (remaining membrane-anchored portion)]", "values": [{"measurement": "dissociation rate of the inner barrier (kβ1^o)", "value": 20.1, "unit": "s⁻¹"}, {"measurement": "dissociation rate of the outer barrier (kβ2^o)", "value": 0.46, "unit": "s⁻¹"}]}
